# Assay results published in US11278600B2, “Human alpha-galactosidase variants” (Codexis, Inc., priority 2014, dated 2022).
# Where a chain is given by its changes, count along the chain named.
# B1: 304 (protein)
# chain: LDNGLARTPTMGWLHWERFMCNLDCQEEPDSCISEKLFMEMAELMVSEGWKDAGYEYLCIDDCWMAPQRDSEGRLQADPQRFPHGIRQLANYVHSKGLKLGIYADVGNKTCAGFPGSFGYYDIDAQTFADWGVDLLKFDGCYCDSLENLADGYKHMSLALNRTGRSIVYSCEWPLYMWPFQKPNYTEIRQYCNHWRNFADIDDSWASIKSILDWTSFNQERIVDVAGPGGWNDPDMLVIGNFGLSWNQQVTQMALWAIMAAPLFMSNDLRHISPQAKALLQDKDVIAINQDPLGKQGYQLRKGDNFEVWERPLSGDAWAVAIINRQEIGGPRSYTIPVASLGKGVACNPGCFITQLLPVKRQLGFYNWTSRLKSHINPTGTVLLQLENTMQMSLKDLL
# modifications: Synthetic Polypeptide sequence of Variant No. 304 of mature Human GLA
# B2: 305 (protein)
# chain: B1 chain with G350A, Q362K, T369S
# modifications: Synthetic Polypeptide sequence of Variant No. 305 of mature Human GLA
# B3: 306 (protein)
# chain: B1 chain with R221K, N247D, D316L, P337A, G350A, Q362K
# modifications: Synthetic Polypeptide sequence of Variant No. 306 of mature Human GLA
# B4: 307 (protein)
# chain: B1 chain with R221K, D316L, P337A, K343G, G350A, Q362K, T369S, I376V
# modifications: Synthetic Polypeptide sequence of Variant No. 307 of mature Human GLA
# B5: 308 (protein)
# chain: B1 chain with K96I, F217R, K302Q, D316L, P337A, G350A, Q362K, T369S
# modifications: Synthetic Polypeptide sequence of Variant No. 308 of mature Human GLA
# B6: 309 (protein)
# chain: B1 chain with K96I, F217R, N247D, D316L, K343G, Q362K
# modifications: Synthetic Polypeptide sequence of Variant No. 309 of mature Human GLA
# B7: 310 (protein)
# chain: B1 chain with K96I, N247D, K302Q, D316L, P337A, Q362K, T369S
# modifications: Synthetic Polypeptide sequence of Variant No. 310 of mature Human GLA
# B8: 311 (protein)
# chain: B1 chain with K96I, N247D, Q362K, T369S
# modifications: Synthetic Polypeptide sequence of Variant No. 311 of mature Human GLA
# B9: 312 (protein)
# chain: B1 chain with K96I, N247D
# modifications: Synthetic Polypeptide sequence of Variant No. 312 of mature Human GLA
# Experiment: HTP-analysis of yeast culture supernatants, no challenge (MUGal hydrolysis)
# Format: biochemical
# Conditions: activity of the variant/activity of Rd3BB (SEQ ID NO: 13), yeast culture supernatant
# How it was run: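 Activity read as 4-methylumbelliferyl α-D-galactopyranoside hydrolysis: fluorescence (355/448 nm) after sodium carbonate stop, following 30-180 min at 37° C with 2 mM MUGal stock at pH 4.6–4.8. Enzyme source is unchallenged culture supernatant of INVSc1 yeast expressing GLA variants, grown 66-84 h at 30° C.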
row,Molecule,Relative Activity of GLA Variants After No Challenge (NC)
1,B1,++ (++ = >1.5 to 2.5 relative activity over Rd3BB (SEQ ID NO: 13))
2,B2,+ (+ = 0.5 to 1.5 relative activity over Rd3BB (SEQ ID NO: 13))
3,B3,+ (+ = 0.5 to 1.5 relative activity over Rd3BB (SEQ ID NO: 13))
4,B4,+ (+ = 0.5 to 1.5 relative activity over Rd3BB (SEQ ID NO: 13))
5,B5,− (− = <0.5 relative activity to Rd3BB (SEQ ID NO: 13))
6,B6,+ (+ = 0.5 to 1.5 relative activity over Rd3BB (SEQ ID NO: 13))
7,B7,− (− = <0.5 relative activity to Rd3BB (SEQ ID NO: 13))
8,B8,+ (+ = 0.5 to 1.5 relative activity over Rd3BB (SEQ ID NO: 13))
9,B9,++ (++ = >1.5 to 2.5 relative activity over Rd3BB (SEQ ID NO: 13))

# Experiment: HTP-analysis of supernatants pretreated with bovine serum (MUGal hydrolysis)
# Format: biochemical
# Conditions: activity of the variant/activity of Rd3BB (SEQ ID NO: 13), yeast culture supernatant
# How it was run: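 Yeast INVSc1 culture supernatants containing secreted GLA variants were mixed with bovine serum (20:80) and held 1 h at 37° C. Serum-treated samples then reacted with MUGal (4 mM stock) in citrate/McIlvaine buffer (pH 4.3/4.8) for 180 min at 37° C., were quenched with sodium carbonate, and read by fluorescence (Ex 355, Em 448 nm).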
row,Molecule,Relative Activity of GLA Variants After Challenge with Serum
1,B1,++ (++ = >1.5 to 2.5 relative activity over Rd3BB (SEQ ID NO: 13))
2,B2,++ (++ = >1.5 to 2.5 relative activity over Rd3BB (SEQ ID NO: 13))
3,B3,++ (++ = >1.5 to 2.5 relative activity over Rd3BB (SEQ ID NO: 13))
4,B4,+ (+ = 0.5 to 1.5 relative activity over Rd3BB (SEQ ID NO: 13))
5,B5,+ (+ = 0.5 to 1.5 relative activity over Rd3BB (SEQ ID NO: 13))
6,B6,++ (++ = >1.5 to 2.5 relative activity over Rd3BB (SEQ ID NO: 13))
7,B7,+ (+ = 0.5 to 1.5 relative activity over Rd3BB (SEQ ID NO: 13))
8,B8,+ (+ = 0.5 to 1.5 relative activity over Rd3BB (SEQ ID NO: 13))
9,B9,+++ (+++ = >2.5 relative activity over Rd3BB (SEQ ID NO: 13))

# Experiment: HTP-analysis of supernatants pretreated with acid (MUGal hydrolysis)
# Format: biochemical
# Conditions: challenge at pH 4.0; activity of the variant/activity of Rd3BB (SEQ ID NO: 13); yeast culture supernatant
# How it was run: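 Supernatants from INVSc1 yeast secreting GLA variants were challenged at 37° C. for 1-3 h in McIlvaine buffer at pH 3.3-4.3. Residual activity was then measured on 4 mM MUGal substrate stock at pH 4.8 with citrate buffer pH 4.3, over 30-180 min at 37° C. Reactions were quenched with sodium carbonate and read by fluorescence (Ex 355/Em 448 nm).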
row,Molecule,Relative Activity of GLA Variants After Challenge at pH 4.0
1,B1,++ (++ = >1.5 to 2.5 relative activity over Rd3BB (SEQ ID NO: 13))
2,B2,+ (+ = 0.5 to 1.5 relative activity over Rd3BB (SEQ ID NO: 13))
3,B3,++ (++ = >1.5 to 2.5 relative activity over Rd3BB (SEQ ID NO: 13))
4,B4,+ (+ = 0.5 to 1.5 relative activity over Rd3BB (SEQ ID NO: 13))
5,B5,− (− = <0.5 relative activity to Rd3BB (SEQ ID NO: 13))
6,B6,++ (++ = >1.5 to 2.5 relative activity over Rd3BB (SEQ ID NO: 13))
7,B7,+ (+ = 0.5 to 1.5 relative activity over Rd3BB (SEQ ID NO: 13))
8,B8,+ (+ = 0.5 to 1.5 relative activity over Rd3BB (SEQ ID NO: 13))
9,B9,+++ (+++ = >2.5 relative activity over Rd3BB (SEQ ID NO: 13))

# Experiment: HTP-analysis of supernatants pretreated with base (MUGal hydrolysis)
# Format: biochemical
# Conditions: challenge at pH 8.2; activity of the variant/activity of Rd3BB (SEQ ID NO: 13); yeast culture supernatant
# How it was run: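 GLA variants secreted from yeast INVSc1; culture supernatants pre-incubated with McIlvaine buffer pH 7.0–8.2 or 200 mM bicarbonate pH 9.1–9.7 at 37° C. for 1–18 h. Residual activity: MUGal (4 mM stock) hydrolysis at pH 4.3–4.8, 37° C., 30–180 min, carbonate quench; fluorescence Ex 355/Em 448 nm.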
row,Molecule,Relative Activity of GLA Variants After Challenge at pH 8.2
1,B1,++ (++ = >1.5 to 2.5 relative activity over Rd3BB (SEQ ID NO: 13))
2,B2,+ (+ = 0.5 to 1.5 relative activity over Rd3BB (SEQ ID NO: 13))
3,B3,++ (++ = >1.5 to 2.5 relative activity over Rd3BB (SEQ ID NO: 13))
4,B4,+ (+ = 0.5 to 1.5 relative activity over Rd3BB (SEQ ID NO: 13))
5,B5,− (− = <0.5 relative activity to Rd3BB (SEQ ID NO: 13))
6,B6,+++ (+++ = >2.5 relative activity over Rd3BB (SEQ ID NO: 13))
7,B7,+ (+ = 0.5 to 1.5 relative activity over Rd3BB (SEQ ID NO: 13))
8,B8,++ (++ = >1.5 to 2.5 relative activity over Rd3BB (SEQ ID NO: 13))
9,B9,+++ (+++ = >2.5 relative activity over Rd3BB (SEQ ID NO: 13))
